Molecular target: Aβ oligomers: soluble prefibrillar aggregates of biotinylated Aβ(1–42)
Experiment: SPR; BIAcore T200, single-cycle kinetics; biotinylated Aβ (11–28 or oligomeric 1–42) captured on streptavidin-coupled CM5 chip (100–200 RU); antibody as analyte 0.8–500 nM in HBS-P pH 7.4, 0.15 M NaCl; one-to-one Langmuir model

Kd: 0.4 to 0.6 nM
Substance: Crenezumab, fully humanized anti-Aβ monoclonal IgG4 (antibody)

Source: publication PMC5171940
